Drawing on publication PMC12255303, “Regulation of a phage defence island by RptR, a novel repressor that controls restriction–modification systems in diverse bacteria”, this text covers stoichiometry N, binding result and Kd for 8 molecules.

The target of series [1] is RptR (RMS-proximal transcriptional regulator) with an N-terminal His6 tag and 3C protease cleavage site (Escherichia coli O127:H6 E2348/69 (EPEC)). The series is described as follows: SEC; analytical SEC on Superdex 75 Increase 10/300 GL, calibrated with five low-MW standards; MW of His6-3C-RptR interpolated from elution volumes of the purification (SEC buffer 25 mM Tris-HCl pH 8, 200 mM KCl).

Series [2] deals with T1, RptR (His6-3C-RptR) (Escherichia coli O127:H6 E2348/69 (EPEC), UniProt B7UP23 1-79).
T1 sequence: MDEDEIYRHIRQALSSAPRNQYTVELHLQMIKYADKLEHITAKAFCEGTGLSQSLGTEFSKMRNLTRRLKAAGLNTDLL
The series is described as follows: EMSA; up to 1.2 uM RptR; EMSA: 25 mM Tris-HCl pH 8, 150 mM NaCl, 5 mM MgCl2, 0.05 uM dsDNA, 37 C 30 min then 4 C; 8% TBE-PAGE at 4 C, SYBR Gold. As to conditions: protein: recombinant; tags: N-terminal His6 and 3C protease site (cleavage not described); chain copies: 2; blunt. (In general: Mobility shift assays separate free from complexed probe on a gel.)

In series [3] the target is T1, RptR (His6-3C-RptR). Put plainly: EMSA; per RptR dimer; Hill coefficient 3.4; EMSA: 25 mM Tris-HCl pH 8, 150 mM NaCl, 5 mM MgCl2, 0.05 uM dsDNA, 37 C 30 min then 4 C; 8% TBE-PAGE at 4 C, SYBR Gold. As to conditions: protein: recombinant; tags: N-terminal His6 and 3C protease site (cleavage not described); chain copies: 2; blunt.
The target in series [4] is T1, RptR (His6-3C-RptR). The series is described as follows: EMSA; binding abolished. As to conditions: protein: recombinant; tags: N-terminal His6 and 3C protease site (cleavage not described); chain copies: 2; blunt.
In series [5] the target is T1, RptR (His6-3C-RptR). Put plainly: EMSA; single shift. As to conditions: protein: recombinant; tags: N-terminal His6 and 3C protease site (cleavage not described); chain copies: 2; blunt.
In series [6] the target is T1, RptR (His6-3C-RptR). The series is described as follows: EMSA; same shift as DR1/s/3. As to conditions: protein: recombinant; tags: N-terminal His6 and 3C protease site (cleavage not described); chain copies: 2; blunt.
Series [7] concerns the target T1, RptR (His6-3C-RptR). Put plainly: EMSA; higher shift only. As to conditions: protein: recombinant; tags: N-terminal His6 and 3C protease site (cleavage not described); chain copies: 2; blunt.

A word on the stoichiometry N: it is the number of molecules, sites or subunits per partner or assembly. Regarding “RptR (RMS-proximal transcriptional regulator) with an N-terminal His6 tag and 3C protease cleavage site (natural protein)”, in series [1], the stoichiometry N is 2.

B1: DRs/s/s (dsDNA)
DNA 1: AGTTCTTGAACCTGATACCACATTGAATCTATTGAATCTATTGAATCTACTTATCCATTA
DNA 2: TAATGGATAAGTAGATTCAATAGATTCAATAGATTCAATGTGGTATCAGGTTCAAGAACT
For B1, the binding result with RptR (His6-3C-RptR) [2] was “no binding”.

B2: DR1/2/3 (WT) (dsDNA)
DNA 1: AGTTCTTGAACCTGATACCACATTTAGCTAATTTAGCTAATTTAGCTAACTTATCCATTA
DNA 2: TAATGGATAAGTTAGCTAAATTAGCTAAATTAGCTAAATGTGGTATCAGGTTCAAGAACT
In general, Kd refers to a measure of binding affinity in units of concentration. Consider B2, for which the Kd in the series with RptR (His6-3C-RptR) [3] came out at 185 nM.

B3: DR1/2/3 C6G (labelled C5G in Fig S4) (dsDNA)
DNA 1: AGTTCTTGAACCTGATACCACATTTAGGTAATTTAGGTAATTTAGGTAACTTATCCATTA
DNA 2: TAATGGATAAGTTACCTAAATTACCTAAATTACCTAAATGTGGTATCAGGTTCAAGAACT
As for B3, in the series with RptR (His6-3C-RptR) [4], the binding result is listed as “no binding”.

B4: DRs/2/3 (dsDNA)
DNA 1: AGTTCTTGAACCTGATACCACATTGAATCTATTTAGCTAATTTAGCTAACTTATCCATTA
DNA 2: TAATGGATAAGTTAGCTAAATTAGCTAAATAGATTCAATGTGGTATCAGGTTCAAGAACT
B4: the binding result in the series with RptR (His6-3C-RptR) [5] was “binds”.

B5: DR1/r/3 (dsDNA)
DNA 1: AGTTCTTGAACCTGATACCACATTTAGCTAAGAGAGAGAGTTTAGCTAACTTATCCATTA
DNA 2: TAATGGATAAGTTAGCTAAACTCTCTCTCTTAGCTAAATGTGGTATCAGGTTCAAGAACT
On to B5, for which, in the series with RptR (His6-3C-RptR) [6], the binding result was “binds”.

B6: DR1/2/s (WT control) (dsDNA)
DNA 1: AGTTCTTGAACCTGATACCACATTTAGCTAATTTAGCTAATTGAATCTACTTATCCATTA
DNA 2: TAATGGATAAGTAGATTCAATTAGCTAAATTAGCTAAATGTGGTATCAGGTTCAAGAACT
Turning to B6, in the series with RptR (His6-3C-RptR) [5], the binding result is recorded as “binds”.

B7: DR1/s/3 (dsDNA)
DNA 1: AGTTCTTGAACCTGATACCACATTTAGCTAATTGAATCTATTTAGCTAACTTATCCATTA
DNA 2: TAATGGATAAGTTAGCTAAATAGATTCAATTAGCTAAATGTGGTATCAGGTTCAAGAACT
As for B7, the binding result with RptR (His6-3C-RptR) [7] is “binds”.
